Source: patent US20260275304A1, “METHODS AND COMPOSITIONS FOR GLYPHOSATE TOLERANCE IN PLANTS” (Monsanto Technology LLC, priority 2023, published 2026)

Tested on: S. cerevisiae strain sKR-024
Experiment: Growth of synthetic yeast strain sKR-024 expressing EPSPS variants with or without glyphosate
Format: cell-based, Saccharomyces cerevisiae
Settings: for growth in yeast minimal media without glyphosate: 0 mM glyphosate; for order of glyphosate tolerance: 5 mM glyphosate, FIG. 1 Panel C; for glyphosate tolerance in synthetic yeast host: mutants isolated from directed evolution
Experimental: EPSPS variants were re-cloned into a clean p416-Core1p backbone and transformed into strain sKR-024 as described above. Colonies were then picked in triplicate into YSC-Ura-Leu and outgrown for 2 days at 30° C. Cultures were then diluted back to OD 0.001 in yeast minimal media (YMM) containing varying amounts of glyphosate as indicated. Growth rate measurements were then obtained using an Infinite M200 PRO microplate reader (Tecan, Männedorf, Switzerland) with incubation at 30° C. for 72-120 hours depending on growth rate of selected variants.
To determine if this system could further corroborate observations from previous literature, the well-studied EPSPS mutants T102I and P106S, and the combined double mutant TIPS (T102I-P106S) were generated and complemented into this yeast system. These mutations were reported to result in varying degrees of glyphosate resistance.
Having established low copy number and weak promoter expression of EPSPS variants, it was sought to recharacterize phenotypes under field conditions that are used in planta. […] It has been reported previously that under standard glyphosate foliar application, 0.3 mM or more of glyphosate (gly) can accumulate in a plant's root nodules and meristems. […] These trends support reported literature of mutants P106S and TIPS grown in various plant hosts. As a result, the present synthetic yeast model system closely resembles in planta observations and thus can be used to select for dual-trait EPSPS variants aimed at both enzymatic efficiency and glyphosate resistance.
Select mutants isolated from the final directed evolution campaign with the improved selection strategy were further evaluated in assorted glyphosate concentrations to determine growth characteristics. Mutants isolated from an EPSPS background were evaluated in media containing 0 mM and 0.25 mM glyphosate with the latter being the concentration at which wild-type EPSPS cannot grow after 100 hours. […] The non-glyphosate mono selection highlighted in blue represents mutations resulting from 5 subcultures in 0 mM glyphosate. The low glyphosate dual selection highlighted in light green represents mutants resulting from an additional subculture into 0.5 mM glyphosate. Lastly, the high glyphosate dual selection highlighted in dark green represent mutations isolated after subcultures in increasing levels of glyphosate, up to 10 mM.

Row | Molecule | growth in yeast minimal media without glyphosate | growth in glyphosate (5 mM glyphosate (high levels)) | order of glyphosate tolerance | glyphosate tolerance in synthetic yeast host | also measured
1 | P106S: well-studied EPSPS single mutant P106S (protein) AGAEEIVLQPIKEISGTVKLPGSKSLSNRILLLAALSEGTTVVDNLLNSEDVHYMLGALRTLGLSVEADKAAKRAVVVGCGGKFPVEDSKEEVQLFLGNAGTAMRSLTAAVTAAGGNATYVLDGVPRMRERPIGDLVVGLKQLGADVDCFLGTDCPPVRVNGIGGLPGGKVKLSGSISSQYLSALLMAAPLALGDVEIEIIDKLISIPYVEMTLRLMERFGVKAEHSDSWDRFYIKGGQKYKSPKNAYVEGDASSASYFLAGAAITGGTVTVEGCGTTSLQGDVKFAEVLEMMGAKVTWTETSVTVTGPPREPFGRKHLKAIDVNMNKMPDVAMTLAVVALFADGPTAIRDVASWRVKETERMVAIRTELTKLGASVEEGPDYCIITPPEKLNVTAIDTYDDHRMAMAFSLAACAEVPVAIRDPGCTRKTFPDYFDVLSTFVKN | grew very similarly | no growth | P106S<T102I<TIPS |  | growth in glyphosate (0.5 mM glyphosate, Core1p promoter): slightly higher growth than EPSPS after 80 hours
2 | P106S-K296R: P106S scaffold carrying ported mutation(s), as worded in b196 (protein) AGAEEIVLQPIKEISGTVKLPGSKSLSNRILLLAALSEGTTVVDNLLNSEDVHYMLGALRTLGLSVEADKAAKRAVVVGCGGKFPVEDSKEEVQLFLGNAGTAMRSLTAAVTAAGGNATYVLDGVPRMRERPIGDLVVGLKQLGADVDCFLGTDCPPVRVNGIGGLPGGKVKLSGSISSQYLSALLMAAPLALGDVEIEIIDKLISIPYVEMTLRLMERFGVKAEHSDSWDRFYIKGGQKYKSPKNAYVEGDASSASYFLAGAAITGGTVTVEGCGTTSLQGDVKFAEVLEMMGARVTWTETSVTVTGPPREPFGRKHLKAIDVNMNKMPDVAMTLAVVALFADGPTAIRDVASWRVKETERMVAIRTELTKLGASVEEGPDYCIITPPEKLNVTAIDTYDDHRMAMAFSLAACAEVPVAIRDPGCTRKTFPDYFDVLSTFVKN |  | observable growth |  |  | 
3 | TIPS-V66L-M104L: maize EPSPS variant, SEQ ID NO:17 (protein, Zea mays) AGAEEIVLQPIKEISGTVKLPGSKSLSNRILLLAALSEGTTVVDNLLNSEDVHYMLGALRTLGLSLEADKAAKRAVVVGCGGKFPVEDSKEEVQLFLGNAGIALRSLTAAVTAAGGNATYVLDGVPRMRERPIGDLVVGLKQLGADVDCFLGTDCPPVRVNGIGGLPGGKVKLSGSISSQYLSALLMAAPLALGDVEIEIIDKLISIPYVEMTLRLMERFGVKAEHSDSWDRFYIKGGQKYKSPKNAYVEGDASSASYFLAGAAITGGTVTVEGCGTTSLQGDVKFAEVLEMMGAKVTWTETSVTVTGPPREPFGRKHLKAIDVNMNKMPDVAMTLAVVALFADGPTAIRDVASWRVKETERMVAIRTELTKLGASVEEGPDYCIITPPEKLNVTAIDTYDDHRMAMAFSLAACAEVPVAIRDPGCTRKTFPDYFDVLSTFVKN | high growth in non-glyphosate |  |  | high glyphosate tolerance | 
4 | TIPS-1177V: maize EPSPS variant, SEQ ID NO:21 (protein, Zea mays) AGAEEIVLQPIKEISGTVKLPGSKSLSNRILLLAALSEGTTVVDNLLNSEDVHYMLGALRTLGLSVEADKAAKRAVVVGCGGKFPVEDSKEEVQLFLGNAGIAMRSLTAAVTAAGGNATYVLDGVPRMRERPIGDLVVGLKQLGADVDCFLGTDCPPVRVNGIGGLPGGKVKLSGSVSSQYLSALLMAAPLALGDVEIEIIDKLISIPYVEMTLRLMERFGVKAEHSDSWDRFYIKGGQKYKSPKNAYVEGDASSASYFLAGAAITGGTVTVEGCGTTSLQGDVKFAEVLEMMGAKVTWTETSVTVTGPPREPFGRKHLKAIDVNMNKMPDVAMTLAVVALFADGPTAIRDVASWRVKETERMVAIRTELTKLGASVEEGPDYCIITPPEKLNVTAIDTYDDHRMAMAFSLAACAEVPVAIRDPGCTRKTFPDYFDVLSTFVKN |  |  |  | moderate glyphosate tolerance | 
5 | TIPS-P126L: maize EPSPS variant, SEQ ID NO:22 (protein, Zea mays) AGAEEIVLQPIKEISGTVKLPGSKSLSNRILLLAALSEGTTVVDNLLNSEDVHYMLGALRTLGLSVEADKAAKRAVVVGCGGKFPVEDSKEEVQLFLGNAGIAMRSLTAAVTAAGGNATYVLDGVLRMRERPIGDLVVGLKQLGADVDCFLGTDCPPVRVNGIGGLPGGKVKLSGSISSQYLSALLMAAPLALGDVEIEIIDKLISIPYVEMTLRLMERFGVKAEHSDSWDRFYIKGGQKYKSPKNAYVEGDASSASYFLAGAAITGGTVTVEGCGTTSLQGDVKFAEVLEMMGAKVTWTETSVTVTGPPREPFGRKHLKAIDVNMNKMPDVAMTLAVVALFADGPTAIRDVASWRVKETERMVAIRTELTKLGASVEEGPDYCIITPPEKLNVTAIDTYDDHRMAMAFSLAACAEVPVAIRDPGCTRKTFPDYFDVLSTFVKN |  |  |  | moderate glyphosate tolerance | 
6 | T102I: well-studied EPSPS single mutant T102I (protein) AGAEEIVLQPIKEISGTVKLPGSKSLSNRILLLAALSEGTTVVDNLLNSEDVHYMLGALRTLGLSVEADKAAKRAVVVGCGGKFPVEDSKEEVQLFLGNAGIAMRPLTAAVTAAGGNATYVLDGVPRMRERPIGDLVVGLKQLGADVDCFLGTDCPPVRVNGIGGLPGGKVKLSGSISSQYLSALLMAAPLALGDVEIEIIDKLISIPYVEMTLRLMERFGVKAEHSDSWDRFYIKGGQKYKSPKNAYVEGDASSASYFLAGAAITGGTVTVEGCGTTSLQGDVKFAEVLEMMGAKVTWTETSVTVTGPPREPFGRKHLKAIDVNMNKMPDVAMTLAVVALFADGPTAIRDVASWRVKETERMVAIRTELTKLGASVEEGPDYCIITPPEKLNVTAIDTYDDHRMAMAFSLAACAEVPVAIRDPGCTRKTFPDYFDVLSTFVKN |  |  | P106S<T102I<TIPS |  | 
